From patent US10087225B2, “Formulation of MK2 inhibitor peptides” (MOERAE MATRIX, INC., priority 2015, dated 2018)

What was measured:
JNK1α1(h) = JNK1α1(h) (Homo sapiens, UniProt P45983); test: Kinase Profiling Assay; format: biochemical
[1] = human, HCAVSMCs, 10 μM, intracellular half-life (t1/2), fluorescence 0 and 5 days after treatment removal
Experimental: HCAVSMCs were grown to 80-90% confluence, harvested, and seeded at 20,000 cells/well in a 24 well plate and allowed to adhere overnight in low serum media (DMEM, 1% FBS, and 1% P/S). […] Following treatment, cells were washed with PBS −/−, washed with CellScrub buffer (Genlantis) for 10 minutes at room temperature to remove extracellular polyplexes and/or peptide, washed 2× in PBS −/−, and given fresh complete growth media. Cells were then incubated for an additional 0, 12, 24, 72, or 120 hours. Cells were then washed with PBS −/−, trypsinized, and resuspended in 0.1% Trypan blue in PBS (−/−) for analysis on a FACSCalibur flow cytometer (Becton Dickinson) with BD CellQuest™ Pro software (V 5.2). Data was exported and analyzed with FlowJo software (V 7.6.4). All samples were run in triplicate.

HCAVSMCs = test: Flow cytometric uptake and retention of MK2i-NPs and p-HSP20-NPs (30 min treatment); conditions: 3 days after treatment removal
Experimental: For MK2i-NP and HSP20-NP studies, An amine-reactive Alexa-488 succinimidyl ester (Life Technologies) was dissolved in DMSO and mixed at a 1 to 3 molar ratio with the MK2i or p-HSP20 peptide in 100 mM sodium bicarbonate buffer (pH=8.3) and allowed to react for 3 hours. Unreacted fluorophore and organic solvent were removed using a PD-10 miditrap G-10 desalting column, and the fluorescently labeled MK2i and p-HSP20 peptides were lyophilized. […] Similarly, PPAA was mixed with fluorescently labeled p-HSP20 at a CR of [NH3^+]/[COO^−]=1:3 and syringe filtered through a 0.45 μm PTFE filter to form fluorescent HSP20-NPs. HCAVSMCs were grown to 80-90% confluence, harvested, and seeded at 20,000 cells/well in a 24 well plate and allowed to adhere overnight. […] Following treatment, cells were washed 2× in PBS, and either immediately harvested or incubated in complete growth media for an additional 72 hours. Cells were harvested with 0.05% trypsin-EDTA, centrifuged, and suspended in 0.1% Trypan blue in PBS (−/−) for analysis on a FACSCalibur flow cytometer (Becton Dickinson) with BD CellQuest™ Pro software (V 5.2). Data was exported and analyzed with FlowJo software (V 7.6.4). All samples were run in triplicate.

EGFR(T790M)(h) = EGFR(T790M)(h) (Homo sapiens, UniProt P00533, T790M); test: Kinase Profiling Assay; format: biochemical; conditions: 100 μM
PDGFRα(D842V)(h) = PDGFRα(D842V)(h) (Homo sapiens, UniProt P16234, D842V); test: Kinase Profiling Assay; format: biochemical; conditions: 100 μM
DDR2(h) = molecular target: T1, DDR2(h) (Homo sapiens, UniProt Q16832); test: Kinase Profiling Assay; format: biochemical; conditions: 100 μM
T1 sequence (Q16832 22-855): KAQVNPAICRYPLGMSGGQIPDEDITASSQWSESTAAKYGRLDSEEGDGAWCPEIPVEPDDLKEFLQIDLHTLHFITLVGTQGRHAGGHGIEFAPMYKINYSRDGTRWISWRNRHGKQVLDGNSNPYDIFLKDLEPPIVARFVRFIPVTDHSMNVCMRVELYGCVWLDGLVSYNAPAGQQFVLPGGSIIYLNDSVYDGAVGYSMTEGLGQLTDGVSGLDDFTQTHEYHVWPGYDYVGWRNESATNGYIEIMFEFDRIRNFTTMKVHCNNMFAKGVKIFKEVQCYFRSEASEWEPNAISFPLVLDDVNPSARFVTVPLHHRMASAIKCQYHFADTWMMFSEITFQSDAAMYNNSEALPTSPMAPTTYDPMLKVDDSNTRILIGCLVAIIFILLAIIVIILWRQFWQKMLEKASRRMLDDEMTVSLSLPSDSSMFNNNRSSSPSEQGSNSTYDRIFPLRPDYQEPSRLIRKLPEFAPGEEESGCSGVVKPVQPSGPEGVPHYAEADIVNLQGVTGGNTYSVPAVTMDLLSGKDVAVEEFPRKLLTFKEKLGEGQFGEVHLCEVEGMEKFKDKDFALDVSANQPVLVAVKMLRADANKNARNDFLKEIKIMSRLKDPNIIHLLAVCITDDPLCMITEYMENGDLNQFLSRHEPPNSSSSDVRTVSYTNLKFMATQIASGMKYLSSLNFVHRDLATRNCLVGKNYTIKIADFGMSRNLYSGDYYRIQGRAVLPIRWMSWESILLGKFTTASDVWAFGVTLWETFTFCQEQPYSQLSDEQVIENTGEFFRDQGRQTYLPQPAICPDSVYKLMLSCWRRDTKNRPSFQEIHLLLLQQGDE

CDK1/cyclinB(h) = CDK1/cyclinB(h) (Homo sapiens, UniProt P06493); test: Kinase Profiling Assay; format: biochemical; conditions: 100 μM
Ab1(Q252H)(h) = Ab1(Q252H)(h) (Homo sapiens, UniProt P00519, Q252H); test: Kinase Profiling Assay; format: biochemical; conditions: 100 μM
ROCK-I(h) = ROCK-I(h) (Homo sapiens, UniProt Q13464); test: Kinase Profiling Assay; format: biochemical; conditions: 100 μM
SAPK2a(h) = SAPK2a(h) (Homo sapiens, UniProt Q16539); test: Kinase Profiling Assay; format: biochemical; conditions: 100 μM
CDK9/cyclin T1(h) = CDK9/cyclin T1(h) (Homo sapiens, UniProt P50750); test: Kinase Profiling Assay; format: biochemical; conditions: 100 μM
Hck(h) = Hck(h) (Homo sapiens, UniProt P08631); test: Kinase Profiling Assay; format: biochemical; conditions: 100 μM
MRCKβ(h) = MRCKβ(h) (Homo sapiens, UniProt Q9Y5S2); test: Kinase Profiling Assay; format: biochemical; conditions: 100 μM
c-RAF(h) = c-RAF(h) (Homo sapiens, UniProt P04049); test: Kinase Profiling Assay; format: biochemical; conditions: 100 μM
HIPK3(h) = HIPK3(h) (Homo sapiens, UniProt Q9H422); test: Kinase Profiling Assay; format: biochemical; conditions: 100 μM
CDK3/cyclinE(h) = CDK3/cyclinE(h) (Homo sapiens, UniProt Q00526); test: Kinase Profiling Assay; format: biochemical; conditions: 100 μM
LIMK1(h) = LIMK1(h) (Homo sapiens, UniProt P53667); test: Kinase Profiling Assay; format: biochemical; conditions: 100 μM
CK2α2(h) = CK2α2(h) (Homo sapiens, UniProt P19784); test: Kinase Profiling Assay; format: biochemical; conditions: 100 μM
Fgr(h) = Fgr(h) (Homo sapiens, UniProt P09769); test: Kinase Profiling Assay; format: biochemical; conditions: 100 μM
Yes(h) = Yes(h) (Homo sapiens, UniProt P07947); test: Kinase Profiling Assay; format: biochemical; conditions: 100 μM

HIPK3(h), sequence (Q9H422 whole entry): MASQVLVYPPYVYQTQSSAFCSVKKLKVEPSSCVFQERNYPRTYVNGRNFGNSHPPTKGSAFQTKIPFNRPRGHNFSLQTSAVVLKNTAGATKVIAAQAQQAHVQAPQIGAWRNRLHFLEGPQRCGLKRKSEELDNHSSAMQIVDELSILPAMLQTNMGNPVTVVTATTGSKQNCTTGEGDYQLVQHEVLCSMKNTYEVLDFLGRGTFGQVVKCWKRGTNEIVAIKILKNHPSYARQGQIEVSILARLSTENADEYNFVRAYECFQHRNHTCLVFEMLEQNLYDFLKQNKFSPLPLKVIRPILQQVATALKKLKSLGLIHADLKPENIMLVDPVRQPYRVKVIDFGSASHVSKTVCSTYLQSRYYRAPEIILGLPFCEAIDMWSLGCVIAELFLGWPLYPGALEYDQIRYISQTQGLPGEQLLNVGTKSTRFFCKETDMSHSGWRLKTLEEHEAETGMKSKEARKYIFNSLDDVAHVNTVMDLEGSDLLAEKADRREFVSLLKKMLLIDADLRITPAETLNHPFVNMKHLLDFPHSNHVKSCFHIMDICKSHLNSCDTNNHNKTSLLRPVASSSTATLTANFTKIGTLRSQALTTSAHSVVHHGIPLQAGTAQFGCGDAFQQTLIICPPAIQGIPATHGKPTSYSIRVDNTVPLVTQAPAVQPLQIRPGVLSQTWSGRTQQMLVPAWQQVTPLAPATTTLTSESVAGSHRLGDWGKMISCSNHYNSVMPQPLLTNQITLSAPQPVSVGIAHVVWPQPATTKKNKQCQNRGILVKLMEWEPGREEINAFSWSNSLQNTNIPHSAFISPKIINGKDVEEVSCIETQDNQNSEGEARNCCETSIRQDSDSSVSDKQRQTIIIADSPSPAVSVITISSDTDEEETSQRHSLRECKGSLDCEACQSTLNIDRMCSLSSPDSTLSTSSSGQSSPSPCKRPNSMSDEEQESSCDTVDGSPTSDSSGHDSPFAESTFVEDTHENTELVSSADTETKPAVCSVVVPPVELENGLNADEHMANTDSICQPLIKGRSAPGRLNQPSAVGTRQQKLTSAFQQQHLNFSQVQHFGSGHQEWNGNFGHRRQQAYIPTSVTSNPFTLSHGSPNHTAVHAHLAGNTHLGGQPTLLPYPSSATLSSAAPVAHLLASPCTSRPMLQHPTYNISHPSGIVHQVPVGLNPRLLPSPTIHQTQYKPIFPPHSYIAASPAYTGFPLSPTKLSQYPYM
ROCK-I(h), sequence (Q13464 whole entry): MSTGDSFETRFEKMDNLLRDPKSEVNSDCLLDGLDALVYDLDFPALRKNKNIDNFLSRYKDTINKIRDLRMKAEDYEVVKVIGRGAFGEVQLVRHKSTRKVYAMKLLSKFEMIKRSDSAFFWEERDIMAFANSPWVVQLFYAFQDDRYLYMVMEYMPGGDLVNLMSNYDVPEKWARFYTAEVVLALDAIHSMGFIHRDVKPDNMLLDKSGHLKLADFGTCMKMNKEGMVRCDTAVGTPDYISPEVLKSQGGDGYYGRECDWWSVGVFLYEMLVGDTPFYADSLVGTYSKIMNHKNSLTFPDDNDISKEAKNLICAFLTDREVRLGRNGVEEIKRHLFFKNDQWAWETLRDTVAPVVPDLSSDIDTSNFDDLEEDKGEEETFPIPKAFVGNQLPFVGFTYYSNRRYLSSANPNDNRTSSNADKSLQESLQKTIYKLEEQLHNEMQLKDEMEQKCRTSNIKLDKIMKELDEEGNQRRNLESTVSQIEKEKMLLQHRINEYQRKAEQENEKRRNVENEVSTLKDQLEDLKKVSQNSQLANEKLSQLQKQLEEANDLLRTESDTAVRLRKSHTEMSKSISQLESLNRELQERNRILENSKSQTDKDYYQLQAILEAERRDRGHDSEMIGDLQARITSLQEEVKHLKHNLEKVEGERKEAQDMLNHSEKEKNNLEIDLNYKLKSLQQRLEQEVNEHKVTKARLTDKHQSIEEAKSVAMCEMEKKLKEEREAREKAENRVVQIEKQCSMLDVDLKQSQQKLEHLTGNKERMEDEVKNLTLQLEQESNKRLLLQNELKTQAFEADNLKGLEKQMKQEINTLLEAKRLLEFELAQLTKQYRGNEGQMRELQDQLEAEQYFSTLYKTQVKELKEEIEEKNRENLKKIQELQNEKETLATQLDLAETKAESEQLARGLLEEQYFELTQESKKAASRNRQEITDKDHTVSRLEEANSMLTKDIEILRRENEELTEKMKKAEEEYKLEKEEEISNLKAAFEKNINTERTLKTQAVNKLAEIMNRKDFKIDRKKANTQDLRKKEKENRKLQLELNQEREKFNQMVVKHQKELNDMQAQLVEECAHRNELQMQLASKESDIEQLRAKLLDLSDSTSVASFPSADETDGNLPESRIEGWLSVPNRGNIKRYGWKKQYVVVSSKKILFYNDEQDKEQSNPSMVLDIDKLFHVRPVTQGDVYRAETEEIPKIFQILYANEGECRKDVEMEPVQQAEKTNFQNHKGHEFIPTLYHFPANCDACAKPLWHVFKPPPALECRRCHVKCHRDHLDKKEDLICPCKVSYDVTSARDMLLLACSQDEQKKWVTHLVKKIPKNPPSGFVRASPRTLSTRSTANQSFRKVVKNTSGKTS
Hck(h), sequence (P08631 whole entry): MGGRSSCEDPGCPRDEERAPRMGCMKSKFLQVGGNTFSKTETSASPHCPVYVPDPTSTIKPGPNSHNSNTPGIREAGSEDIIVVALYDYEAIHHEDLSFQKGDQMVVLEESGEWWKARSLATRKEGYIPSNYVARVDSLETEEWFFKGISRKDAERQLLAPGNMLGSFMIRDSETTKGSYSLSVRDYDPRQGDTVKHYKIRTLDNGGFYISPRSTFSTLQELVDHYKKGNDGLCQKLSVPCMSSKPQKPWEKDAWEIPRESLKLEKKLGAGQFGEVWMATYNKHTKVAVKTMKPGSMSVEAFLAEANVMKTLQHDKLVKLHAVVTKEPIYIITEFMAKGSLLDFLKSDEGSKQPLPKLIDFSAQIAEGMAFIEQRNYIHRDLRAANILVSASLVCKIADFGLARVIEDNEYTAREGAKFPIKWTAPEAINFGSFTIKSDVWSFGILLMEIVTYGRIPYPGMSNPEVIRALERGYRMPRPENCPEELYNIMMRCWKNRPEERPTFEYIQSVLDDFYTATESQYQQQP
MRCKβ(h), sequence (Q9Y5S2 whole entry): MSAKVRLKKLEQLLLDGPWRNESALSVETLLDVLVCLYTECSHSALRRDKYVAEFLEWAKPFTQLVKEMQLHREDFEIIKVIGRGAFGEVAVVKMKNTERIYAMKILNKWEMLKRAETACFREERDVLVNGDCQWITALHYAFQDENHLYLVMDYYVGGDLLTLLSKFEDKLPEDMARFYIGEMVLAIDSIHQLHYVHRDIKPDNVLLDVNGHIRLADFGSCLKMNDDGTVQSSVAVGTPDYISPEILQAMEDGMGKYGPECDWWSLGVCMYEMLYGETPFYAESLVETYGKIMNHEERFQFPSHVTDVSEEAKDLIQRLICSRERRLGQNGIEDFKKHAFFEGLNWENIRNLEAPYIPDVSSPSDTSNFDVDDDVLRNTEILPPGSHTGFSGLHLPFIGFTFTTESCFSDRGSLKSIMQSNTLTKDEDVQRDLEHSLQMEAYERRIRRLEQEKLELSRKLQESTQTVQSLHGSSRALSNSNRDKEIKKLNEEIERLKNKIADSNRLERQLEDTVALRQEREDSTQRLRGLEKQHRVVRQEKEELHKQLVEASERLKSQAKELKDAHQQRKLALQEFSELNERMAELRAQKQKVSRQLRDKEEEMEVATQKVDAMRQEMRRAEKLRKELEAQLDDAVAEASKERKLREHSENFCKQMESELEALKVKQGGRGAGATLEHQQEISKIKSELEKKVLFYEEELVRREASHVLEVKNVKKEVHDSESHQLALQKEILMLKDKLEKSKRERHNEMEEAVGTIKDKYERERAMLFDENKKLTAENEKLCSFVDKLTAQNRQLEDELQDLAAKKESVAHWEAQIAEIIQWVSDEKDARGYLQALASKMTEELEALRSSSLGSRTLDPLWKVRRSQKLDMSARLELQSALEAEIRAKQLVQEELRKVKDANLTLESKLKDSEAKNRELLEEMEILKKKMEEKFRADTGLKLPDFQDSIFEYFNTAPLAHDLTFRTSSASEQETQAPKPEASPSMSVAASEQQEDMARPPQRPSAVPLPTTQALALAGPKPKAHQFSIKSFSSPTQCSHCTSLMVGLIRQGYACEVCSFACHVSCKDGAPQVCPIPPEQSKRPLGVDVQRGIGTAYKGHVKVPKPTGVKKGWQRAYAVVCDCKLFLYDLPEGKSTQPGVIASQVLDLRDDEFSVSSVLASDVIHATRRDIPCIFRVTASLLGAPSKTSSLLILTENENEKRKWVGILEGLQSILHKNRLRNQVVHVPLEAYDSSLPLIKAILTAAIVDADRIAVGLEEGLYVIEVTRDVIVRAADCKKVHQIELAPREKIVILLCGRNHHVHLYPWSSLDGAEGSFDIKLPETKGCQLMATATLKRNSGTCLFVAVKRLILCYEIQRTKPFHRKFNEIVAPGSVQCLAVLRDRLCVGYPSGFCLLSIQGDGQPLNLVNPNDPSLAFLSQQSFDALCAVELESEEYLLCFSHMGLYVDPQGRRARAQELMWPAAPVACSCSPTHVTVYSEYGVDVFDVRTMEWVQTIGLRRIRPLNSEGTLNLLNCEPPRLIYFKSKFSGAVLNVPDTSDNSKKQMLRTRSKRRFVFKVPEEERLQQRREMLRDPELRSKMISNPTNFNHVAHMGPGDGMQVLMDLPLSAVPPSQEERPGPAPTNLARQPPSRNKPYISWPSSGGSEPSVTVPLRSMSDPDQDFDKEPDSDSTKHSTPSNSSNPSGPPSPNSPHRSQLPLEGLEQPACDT

For H-YARAAARQARAKALARQLGVAA-OH [MMI-0100], the activity at 100 µM (JNK1α1(h)) was 91%, the half-life [1] was 4 days and the “intracellular peptide retention (% of initial uptake remaining)” value (HCAVSMCs) was 54%.
In the case of “HRRIKAWLKKIKALARQLGVAA (Mammalian) [MMI-0500]”, the “% activity” value (EGFR(T790M)(h)) is reported as 70%, the “% activity” value (PDGFRα(D842V)(h)) is reported as 170% and the “% activity” value (DDR2(h)) is reported as 79%. For the same substance, the “% activity” value (CDK1/cyclinB(h)) was 57%, the “% activity” value (Ab1(Q252H)(h)) was 40% and the “% activity” value (ROCK-I(h)) was 17%. The “% activity” value (SAPK2a(h)) was 52%, the “% activity” value (CDK9/cyclin T1(h)) was 6% and the “% activity” value (Hck(h)) was 78%. For the same substance, the “% activity” value (MRCKβ(h)) was -10%, the “% activity” value (c-RAF(h)) was 19% and the “% activity” value (HIPK3(h)) was 85%. For the same substance, the “% activity” value (CDK3/cyclinE(h)) was 8% and the “% activity” value (LIMK1(h)) was 87%.
For “YARAAARQARAKALNRQLGVA (Mammalian) [MMI-0200]”, the “% activity” value (CK2α2(h)) was 88%, the “% activity” value (Fgr(h)) was 71% and the “% activity” value (Yes(h)) was 93%.
